Experimental data reported in patent publication US10428149 (dated 2019).

Molecular target: FAP (human, UniProt Q12884)
Assay: FACS, HT1080 FAP+ cells

Sequence of FAP (Q12884 26-760): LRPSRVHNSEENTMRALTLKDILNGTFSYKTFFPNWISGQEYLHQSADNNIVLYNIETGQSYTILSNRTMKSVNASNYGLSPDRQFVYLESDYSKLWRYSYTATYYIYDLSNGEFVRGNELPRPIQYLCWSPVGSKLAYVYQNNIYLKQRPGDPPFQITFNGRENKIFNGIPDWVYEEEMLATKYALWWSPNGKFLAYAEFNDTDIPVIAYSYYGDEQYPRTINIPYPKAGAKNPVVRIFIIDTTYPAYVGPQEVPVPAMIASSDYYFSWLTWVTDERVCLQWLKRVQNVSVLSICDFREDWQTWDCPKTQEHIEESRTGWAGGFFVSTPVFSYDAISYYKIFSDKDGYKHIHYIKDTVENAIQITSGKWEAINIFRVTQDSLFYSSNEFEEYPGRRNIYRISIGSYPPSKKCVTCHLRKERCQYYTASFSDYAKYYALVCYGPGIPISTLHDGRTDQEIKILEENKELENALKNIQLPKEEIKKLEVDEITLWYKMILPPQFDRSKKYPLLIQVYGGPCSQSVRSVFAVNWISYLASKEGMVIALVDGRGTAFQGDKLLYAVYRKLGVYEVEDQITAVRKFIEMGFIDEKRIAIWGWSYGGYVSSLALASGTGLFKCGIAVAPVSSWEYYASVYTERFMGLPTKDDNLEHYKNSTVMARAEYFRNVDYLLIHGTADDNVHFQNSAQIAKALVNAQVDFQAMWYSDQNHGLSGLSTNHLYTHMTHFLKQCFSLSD

B1: Db anti-FAP-Glyco-scTRAIL3-FAVSGAA (antibody)
chain: MDWTWRVFCLLAVAPGAHSLEASDYKDDDDKGTGQVQLVQSGAEVKKPGASVKVSCKASGYTFTENIIHWVRQAPGQGLEWMGWFHPGSGSIKYNEKFKDRVTMTADTSTSTVYMELSSLRSEDTAVYYCARHGGTGRGAMDYWGQGTLVTVSSGGGGSDIQMTQSPSSLSASVGDRVTITCRASKSVSTSAYSYMHWYQQKPGKAPKLLIYLASNLESGVPSRFSGSGSGTDFTLTISSLQPEDFATYYCQHSRELPYTFGQGTKLEIKRAAAGNGTSNGTSEFGGAAAHITGTRGRSNTLSSPNSKNEKALGRKINSWESSRSGHSFLSNLHLRNGELVIHEKGFYYIYSQTYFRFQEEIKENTKNDKQMVQYIYKYTSYPDPILLMKSARNSCWSKDAEYGLYSIYQGGIFELKENDRIFVSVTNEHLIDMDHEASFFGAFAVSGAAAHITGTRGRSNTLSSPNSKNEKALGRKINSWESSRSGHSFLSNLHLRNGELVIHEKGFYYIYSQTYFRFQEEIKENTKNDKQMVQYIYKYTSYPDPILLMKSARNSCWSKDAEYGLYSIYQGGIFELKENDRIFVSVTNEHLIDMDHEASFFGAFAVSGAAAHITGTRGRSNTLSSPNSKNEKALGRKINSWESSRSGHSFLSNLHLRNGELVIHEKGFYYIYSQTYFRFQEEIKENTKNDKQMVQYIYKYTSYPDPILLMKSARNSCWSKDAEYGLYSIYQGGIFELKENDRIFVSVTNEHLIDMDHEASFFGAFAVS
Binder B1 has an EC50 of 14 nM.
